Assay results: patent US20030171276A1, “Preventives and remedies for chronic hepatitis” (priority 1999, published 2003)

Key:
[1] = system: recombinant E2 protein binding to CD81 expressed in Jurkat cells; experiment: Inhibition of binding of recombinant E2 protein to Jurkat cells (FACScan); format: cell-based, HCV; conditions: 1 μg recombinant E2 protein preincubated with 10 μL of 1 mg/mL solution, room temperature 1 hour; FIG. 14
Procedure: An oligopeptide capable of binding to HCV E2 antigen is reacted with the HCV E2 antigen to study whether or not binding of CD81 expressed in Jurkat cells purchased from DAINIPPON PHARMACEUTICAL CO., LTD. to the HCV E2 antigen is inhibited. By the study, whether or not the selected oligopeptide inhibits adhesion of the HCV E2 antigen to CD81-positive cells can be estimated. The inhibitory activity for adhesion of CD81 to the IICV E2 antigen was assayed in accordance with the literature. The concrete description will be given hereinbelow.
The Jurkat cells were prepared in the same manner as in item (1), and suspended in WB so as to have a concentration of 4×10^6 cells/mL, to give a Jurkat cell suspension. […]
Hereinafter, in the same manner as in the item (1) above, the resulting product was reacted with an FITC-labeled anti-mouse IgG1 antibody, and thereafter the reaction mixture was suspended in 0.2 mL of a 10% neutral buffered formalin solution. As to the resulting product, E2 protein bound to Jurkat cells was analyzed by using FACScan.
One microgram of the recombinant E2 protein, and 10 μL of the TAPA148, bLF or bLF443 solution obtained in item (4) above were added to a 6 mm rounded-bottom tube and, and WB was then added thereto, to give 50 μL of a mixture. […] As to the resulting suspension, E2 protein bound to Jurkat cells was analyzed by using FACScan.

[2] = system: HCV; conditions: cited from earlier work

Molecule | inhibitory action of binding of E2 protein to Jurkat cells [1] | amount of virus in blood [2] | binding to HCV ([2]; lactoferrin contained in breast milk)
bLF: bovine lactoferrin protein (SERVA Electrophoresis GmbH) (protein, UniProt P24627 20-708, looked up) Lactotransferrin: APRKNVRWCTISQPEWFKCRRWQWRMKKLGAPSITCVRRAFALECIRAIAEKKADAVTLDGGMVFEAGRDPYKLRPVAAEIYGTKESPQTHYYAVAVVKKGSNFQLDQLQGRKSCHTGLGRSAGWIIPMGILRPYLSWTESLEPLQGAVAKFFSASCVPCIDRQAYPNLCQLCKGEGENQCACSSREPYFGYSGAFKCLQDGAGDVAFVKETTVFENLPEKADRDQYELLCLNNSRAPVDAFKECHLAQVPSHAVVARSVDGKEDLIWKLLSKAQEKFGKNKSRSFQLFGSPPGQRDLLFKDSALGFLRIPSKVDSALYLGSRYLTTLKNLRETAEEVKARYTRVVWCAVGPEEQKKCQQWSQQSGQNVTCATASTTDDCIVLVLKGEADALNLDGGYIYTAGKCGLVPVLAENRKSSKHSSLDCVLRPTEGYLAVAVVKKANEGLTWNSLKDKKSCHTAVDRTAGWNIPMGLIVNQTGSCAFDEFFSQSCAPGADPKSRLCALCAGDDQGLDKCVPNSKEKYYGYTGAFRCLAEDVGDVAFVKNDTVWENTNGESTADWAKNLNREDFRLLCLDGTRKPVTEAQSCHLAVAPNHAVVSRSDRAAHVKQVLLHQQALFGKNGKNCPDKFCLFKSETKNLLFNDNTECLAKLGGRPTYEEYLGTEYVTAIANLKKCSTSPLLEACAFLTR | inhibitory action of binding of the E2 protein | – | –
lactoferrin: lactoferrin contained in breast milk (protein, UniProt P02788 20-710, looked up) Lactotransferrin: GRRRSVQWCAVSQPEATKCFQWQRNMRKVRGPPVSCIKRDSPIQCIQAIAENRADAVTLDGGFIYEAGLAPYKLRPVAAEVYGTERQPRTHYYAVAVVKKGGSFQLNELQGLKSCHTGLRRTAGWNVPIGTLRPFLNWTGPPEPIEAAVARFFSASCVPGADKGQFPNLCRLCAGTGENKCAFSSQEPYFSYSGAFKCLRDGAGDVAFIRESTVFEDLSDEAERDEYELLCPDNTRKPVDKFKDCHLARVPSHAVVARSVNGKEDAIWNLLRQAQEKFGKDKSPKFQLFGSPSGQKDLLFKDSAIGFSRVPPRIDSGLYLGSGYFTAIQNLRKSEEEVAARRARVVWCAVGEQELRKCNQWSGLSEGSVTCSSASTTEDCIALVLKGEADAMSLDGGYVYTAGKCGLVPVLAENYKSQQSSDPDPNCVDRPVEGYLAVAVVRRSDTSLTWNSVKGKKSCHTAVDRTAGWNIPMGLLFNQTGSCKFDEYFSQSCAPGSDPRSNLCALCIGDEQGENKCVPNSNERYYGYTGAFRCLAENAGDVAFVKDVTVLQNTDGNNNEAWAKDLKLADFALLCLDGKRKPVTEARSCHLAMAPNHAVVSRMDKVERLKQVLLHQQAKFGRNGSDCPDKFCLFQSETKNLLFNDNTECLARLHGKTTYEKYLGPQYVAGITNLKKCSTSPLLEACEFLRK | – | reduces an amount of virus in blood | binds to HCV
